A word on the Kd: it is the concentration at which binding is half-saturated.

We go through 40 molecules from patent EP2014310A2 (Dyax Corporation, dated 2009).

Bridge positions count the residues as written; N and C are the ends.

Assay [1] deals with T1, human KDR-Fc fusion (R&D Systems #357-KD-050) (human, UniProt P35968 20-764).
T1 construct: bought
The assay can be described thus: fluorescence anisotropy, fluorescein-labeled peptide. (In general: Polarisation of emitted light reports the rotation of a fluorescent probe.)

Assay [2] addresses T1, human KDR-Fc fusion (R&D Systems …). The assay can be described thus: phage binding screen on KDR-Fc; class legend in paragraph 246.

T1 sequence (P35968 20-764): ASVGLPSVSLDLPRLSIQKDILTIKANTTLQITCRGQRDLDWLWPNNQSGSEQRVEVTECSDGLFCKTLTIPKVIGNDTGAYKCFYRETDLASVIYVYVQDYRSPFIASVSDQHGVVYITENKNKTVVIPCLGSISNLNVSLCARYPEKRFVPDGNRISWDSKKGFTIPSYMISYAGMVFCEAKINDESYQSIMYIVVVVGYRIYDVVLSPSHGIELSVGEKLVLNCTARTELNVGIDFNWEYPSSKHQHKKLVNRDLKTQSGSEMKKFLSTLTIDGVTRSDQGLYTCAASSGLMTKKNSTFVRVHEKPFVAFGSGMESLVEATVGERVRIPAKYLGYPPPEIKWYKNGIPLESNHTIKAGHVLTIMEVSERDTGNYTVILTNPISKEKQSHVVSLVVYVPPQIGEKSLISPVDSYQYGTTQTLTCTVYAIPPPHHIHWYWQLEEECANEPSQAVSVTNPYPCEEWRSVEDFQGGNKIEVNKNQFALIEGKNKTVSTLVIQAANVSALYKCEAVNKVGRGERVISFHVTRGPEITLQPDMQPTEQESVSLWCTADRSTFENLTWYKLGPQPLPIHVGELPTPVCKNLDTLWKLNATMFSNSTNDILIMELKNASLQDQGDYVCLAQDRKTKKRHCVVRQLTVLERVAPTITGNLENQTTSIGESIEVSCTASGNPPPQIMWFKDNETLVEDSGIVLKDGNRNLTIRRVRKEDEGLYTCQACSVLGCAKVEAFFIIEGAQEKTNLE

In the case of Ac-AGANWCEEDWYYCWITGTGGGK-NH2 (disulfide 6-13 (inferred); not fully specified) [SEQ ID NO:272], in assay [1], the Kd was found to be 97 nM.

Ac-AGPDWCEEDWYYCWITGTGGGK-NH2 (disulfide 6-13 (inferred); not fully specified) [SEQ ID NO:273] registered a Kd in assay [1] of 75 nM.

As for Ac-AGVNWCEEDWYYCWITGTGGGK-NH2 (disulfide 6-13 (inferred); not fully specified) [SEQ ID NO:280], the dissociation constant Kd in assay [1] was 260 nM.

In turn, Ac-AGANWCEEDWYYCFITGTGGGK-NH2 (disulfide 6-13 (inferred); not fully specified) [SEQ ID NO:271] showed a Kd in assay [1] of 310 nM.

In the case of Ac-AGANWCEEDWYYCYITGTGGGK-NH2 (disulfide 6-13 (inferred); not fully specified) [SEQ ID NO:281], the dissociation constant Kd in assay [1] was 180 nM.

In assay [1], Ac-AGRNWCEEDWYYCFITGTGGGK-NH2 (disulfide 6-13 (inferred); not fully specified) [SEQ ID NO:279] registered a Kd of 190 nM.

In the case of Ac-AGSNWCEEDWYYCYITGTGGGK-NH2 (disulfide 6-13 (inferred); not fully specified) [SEQ ID NO:274], in assay [1], the affinity, expressed as Kd, was 46 nM.

In assay [1], Ac-GDPPLCYFVGTQEWHHCNPFDPGGGK-NH2 (disulfide 6-17 (inferred); not fully specified) [SEQ ID NO:296] returned a Kd of 600 nM.

In turn, Ac-AGPWTCWLEDHLACAMLGTGGGK-NH2 (disulfide 6-14 (inferred); not fully specified) [SEQ ID NO:312] had a Kd in assay [1] of 3900 nM.

Ac-AGEGWVECFANTGACFTYPRGTGGGK-NH2 (disulfide 8-15 (inferred); not fully specified) [SEQ ID NO:292] returned an equilibrium dissociation constant (Kd) in assay [1] of 2100 nM.

B1: SEQ ID NO:266 (peptide)
peptide: Ac-AGWVECWWKSGQCYEFGTGGGK-NH2
modifications: cysteine pairing not given here; also: C-terminal Lys fluorescein-labeled for some assays, unlabeled for others
For the molecule B1, the Kd in assay [1] is 1300 nM.

B2: SEQ ID NO:284 (peptide)
peptide: Ac-AGVGWVECYQSTGFCYHSRDGTGGGK-NH2
modifications: cysteine pairing not given here; also: C-terminal Lys fluorescein-labeled in some assays
B2 yielded a Kd in assay [1] of 1300 nM.

Ac-AGSDWCRVDWYYCWLMGTGGGK-NH2 (disulfide 6-13 (inferred); not fully specified) [SEQ ID NO:270] showed a Kd in assay [1] of 64 nM.

In turn, Ac-AQQVQYQFFLGTPRYEQWDLDKGGK-NH2 (not fully specified) [SEQ ID NO:304] gave a Kd in assay [1] of 1700 nM.

B3: SEQ ID NO:487 (peptide)
peptide: Ac-GDSSVCFEYSWGGEVCFRYDPGGGK-NH2
modifications: disulfide 6-16 (inferred); not fully specified; also: C-terminal Lys fluorescein-labeled in some assay forms
The molecule B3 displayed a Kd in assay [1] of 58 nM.

Take Ac-AGDWGCSLGNWYWCSTEGTGGGK-NH2 (disulfide 6-14 (inferred); not fully specified) [SEQ ID NO:313]: the dissociation constant Kd in assay [1] worked out at 2000 nM.

In turn, Ac-AGPDWCAADWYYCYITGTGGGK-NH2 (disulfide 6-13 (inferred); not fully specified) [SEQ ID NO:275] showed a Kd in assay [1] of 57 nM.

As to Ac-AGQAWVECYAETGYCWPRSWGTGGGK-NH2 (disulfide 8-15 (inferred); not fully specified) [SEQ ID NO:282], the Kd in assay [1] was 710 nM.

In the case of Ac-AGQAWIECYAEDGYCWPRSWGTGGGK-NH2 (disulfide 8-15 (inferred); not fully specified) [SEQ ID NO:283], in assay [1], the affinity, expressed as Kd, was 1400 nM.

Consider Ac-AGPEWCEVDWYYCWLLGTGGGK-NH2 (disulfide 6-13 (inferred); not fully specified) [SEQ ID NO:276], for which the Kd in assay [1] came out at 75 nM.

Consider Ac-SGRLDCDKVFSGPYGKVCVSYGSGGGK-NH2 (disulfide 6-18 (inferred); not fully specified) [SEQ ID NO:316], for which binding in assay [1] was characterised by a dissociation constant (Kd) of 1050 nM.

With Ac-AGGGWVECRAETGHCQEYRLGTGGGK-NH2 (disulfide 8-15 (inferred); not fully specified) [SEQ ID NO:290], the dissociation constant (Kd) in assay [1] was 1600 nM.

Consider Ac-SGAHQCHHWTSGPYGEVCFNYGSGGGK-NH2 (disulfide 6-18 (inferred); not fully specified) [SEQ ID NO:319], for which, in assay [1], the equilibrium dissociation constant (Kd) is around 2000 nM.

Consider Ac-SGRLDCDKVFSGPHGKICVNYGSGGGK-NH2 (disulfide 6-18 (inferred); not fully specified) [SEQ ID NO:317], for which the Kd in assay [1] is around 2000 nM.

On to Ac-GDNWKCEYTQGYDYTECVYLDPGGGK-NH2 (disulfide 6-17 (inferred); not fully specified) [SEQ ID NO:302], for which, in assay [1], the Kd stood at 820 nM.

The molecule Ac-AGDSWVECDAQTGFCYSFLYGTGGGK-NH2 (disulfide 8-15 (inferred); not fully specified) [SEQ ID NO:287] yielded a Kd in assay [1] of 2300 nM.

Consider Ac-AGSKWCEQDWYYCWLLGTGGGK-NH2 (disulfide 6-13 (inferred); not fully specified) [SEQ ID NO:278], for which the Kd in assay [1] came out at 400 nM.

As for Ac-AGVAWVECYQTTGKCYTFRGGTGGGK-NH2 (disulfide 8-15 (inferred); not fully specified) [SEQ ID NO:291], the Kd in assay [1] is around 2000 nM.

In assay [1], Ac-AQRSWYLGPPYYEEWDPIPNGGK-NH2 (not fully specified) [SEQ ID NO:309] showed a Kd of 1800 nM.

B4: SEQ ID NO:488 (peptide)
peptide: Ac-GDSRVCWEYSWGGQICLGYDPGGGK-NH2
modifications: disulfide 6-16 (inferred); not fully specified; also: C-terminal Lys fluorescein-labeled in some assay forms
The molecule B4 showed a Kd in assay [1] of 320 nM.

In assay [1], Ac-AGWIQCNSITGHCTSGGTGGGK-NH2 (disulfide 6-13 (inferred); not fully specified) [SEQ ID NO:268] yielded a Kd of 240 nM.

With Ac-AGGGWVECYWATGRCIEFAGGTGGGK-NH2 (disulfide 8-15 (inferred); not fully specified) [SEQ ID NO:288], in assay [1], the binding result is given as “no binding”.

B5: SEQ ID NO:297 (peptide)
peptide: Ac-GDDSYCMMNEKGWWNCYLYDPGGGK-NH2
modifications: cysteine pairing not given here; also: C-terminal Lys fluorescein-labeled in some assays
As to B5, the equilibrium dissociation constant (Kd) in assay [1] was 1300 nM.

Ac-AGVWECAKTFPFCHWFGTGGGK-NH2 (disulfide 6-13 (inferred); not fully specified) [SEQ ID NO:265]: in assay [1], the Kd is 2600 nM.

Turning to Ac-GSNSHCYIWDGMWLCFPDAPGGGK-NH2 (disulfide 6-15 (inferred); not fully specified) [SEQ ID NO:315], the Kd in assay [1] is 740 nM.

In assay [1], Ac-AGERWVECRAETGFCYTWVSGTGGGK-NH2 (disulfide 8-15 (inferred); not fully specified) [SEQ ID NO:289] showed a Kd of 2100 nM.

In the case of Ac-GDPAQCWESNYQGIFFCDNPDPGGGK-NH2 (disulfide 6-17 (inferred); not fully specified) [SEQ ID NO:298], the Kd in assay [1] amounted to 2300 nM.

On to Ac-SGRTTCHHQISGPHGKICVNYGSGGGK-NH2 (disulfide 6-18 (inferred); not fully specified) [SEQ ID NO:318], for which the Kd in assay [1] stood at 650 nM.

On to PKWCEEDWYYCMIT [phage isolate PKWCEEDWYYCMIT], for which the binding result in assay [2] was “binds”.

Ac-AGFTWVECHQATGRCVEWTTGTGGGK-NH2 (disulfide 8-15 (inferred); not fully specified) [SEQ ID NO:285] displayed a Kd in assay [1] of 2000 nM.
